# T1: LNX2_2, Q8N448
# T1 sequence (Q8N448 334-432, limits assumed, looked up): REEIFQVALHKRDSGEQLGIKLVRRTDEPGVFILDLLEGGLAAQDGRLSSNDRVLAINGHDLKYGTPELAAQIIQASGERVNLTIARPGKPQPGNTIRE
# T2: RADIL, Q96JH8
# T2 sequence (Q96JH8 971-1071, limits assumed, looked up): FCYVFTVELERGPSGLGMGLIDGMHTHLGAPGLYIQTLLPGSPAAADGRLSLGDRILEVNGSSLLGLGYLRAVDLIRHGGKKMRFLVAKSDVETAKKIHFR
# T3: SNTG1, Q9NSN8
# T3 sequence (Q9NSN8 52-150, limits assumed, looked up): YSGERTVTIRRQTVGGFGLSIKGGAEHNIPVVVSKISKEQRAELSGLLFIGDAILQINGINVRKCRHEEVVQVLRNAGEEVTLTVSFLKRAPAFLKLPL
# T4: PDZRN3_1, Q9UPQ7
# T4 sequence (Q9UPQ7 244-349, limits assumed, looked up): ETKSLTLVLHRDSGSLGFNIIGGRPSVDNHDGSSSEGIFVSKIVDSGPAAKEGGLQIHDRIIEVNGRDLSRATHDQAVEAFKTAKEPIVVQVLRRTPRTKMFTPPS
# T5: HTRA4, P83105
# T5 sequence (P83105 378-476, limits assumed, looked up): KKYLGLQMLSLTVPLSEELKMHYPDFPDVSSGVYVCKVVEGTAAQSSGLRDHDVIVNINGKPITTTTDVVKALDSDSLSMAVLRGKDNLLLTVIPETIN
# T6: HTRA3, P83110
# T6 sequence (P83110 354-453, limits assumed, looked up): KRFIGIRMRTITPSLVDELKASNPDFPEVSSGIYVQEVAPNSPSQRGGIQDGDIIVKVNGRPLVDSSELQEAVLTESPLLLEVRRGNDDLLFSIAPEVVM
# T7: MPP6, Q9NZW5
# T7 sequence (Q9NZW5 125-219, limits assumed, looked up): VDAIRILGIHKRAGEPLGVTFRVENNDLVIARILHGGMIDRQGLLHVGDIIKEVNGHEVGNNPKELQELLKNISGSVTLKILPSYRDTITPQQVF
# T8: SNTB1, Q13884
# T8 sequence (Q13884 107-205, limits assumed, looked up): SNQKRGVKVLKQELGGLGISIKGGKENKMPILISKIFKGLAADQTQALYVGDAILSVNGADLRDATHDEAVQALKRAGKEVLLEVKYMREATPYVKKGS
# T9: GRIP1_7, Q9Y3R0
# T9 sequence (Q9Y3R0 999-1096, limits assumed, looked up): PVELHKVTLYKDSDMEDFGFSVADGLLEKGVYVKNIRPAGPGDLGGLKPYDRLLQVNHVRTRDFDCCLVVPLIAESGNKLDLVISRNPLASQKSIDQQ
# T10: MPDZ_12, O75970
# T10 sequence (O75970 1857-1958, limits assumed, looked up): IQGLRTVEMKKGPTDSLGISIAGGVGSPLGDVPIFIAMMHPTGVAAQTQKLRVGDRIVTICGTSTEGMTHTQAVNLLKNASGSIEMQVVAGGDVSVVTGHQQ
# T11: PCLO, Q9Y6V0
# T11 sequence (Q9Y6V0 4491-4600, limits assumed, looked up): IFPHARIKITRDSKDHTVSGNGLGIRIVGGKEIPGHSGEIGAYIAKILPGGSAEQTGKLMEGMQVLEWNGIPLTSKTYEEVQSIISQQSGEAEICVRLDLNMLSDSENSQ
# How the values were obtained:
# Experiment in all cases: holdup assay
# Set-up in all cases: key: below the threshold = too weak to quantify, mostly under pKd 3.1 to 4
# FRMPD2_1, Q68DX3 = biological target: FRMPD2_1, Q68DX3
# Chain of FRMPD2_1, Q68DX3 (Q68DX3 770-861): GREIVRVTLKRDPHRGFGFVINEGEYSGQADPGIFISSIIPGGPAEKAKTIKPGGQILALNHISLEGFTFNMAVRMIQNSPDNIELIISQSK
# GRASP, Q7Z6J2 = biological target: GRASP, Q7Z6J2
# Chain of GRASP, Q7Z6J2 (Q7Z6J2 96-193): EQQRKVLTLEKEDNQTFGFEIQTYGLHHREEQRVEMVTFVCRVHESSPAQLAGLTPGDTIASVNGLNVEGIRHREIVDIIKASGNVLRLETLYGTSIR
# LNX1_3, Q8TBB1 = biological target: LNX1_3, Q8TBB1
# Chain of LNX1_3, Q8TBB1 (Q8TBB1 500-596): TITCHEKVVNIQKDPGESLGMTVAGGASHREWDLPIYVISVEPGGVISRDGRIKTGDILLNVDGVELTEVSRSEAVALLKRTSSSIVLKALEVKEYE
# IL16_4, Q14005 = biological target: IL16_4, Q14005
# Chain of IL16_4, Q14005 (Q14005 1229-1329): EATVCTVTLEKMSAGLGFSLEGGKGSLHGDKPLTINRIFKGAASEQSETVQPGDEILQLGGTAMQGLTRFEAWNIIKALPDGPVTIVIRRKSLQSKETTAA
# LNX2_2, Q8N448 = biological target: T1, LNX2_2, Q8N448
# RADIL, Q96JH8 = biological target: T2, RADIL, Q96JH8
# SNTG1, Q9NSN8 = biological target: T3, SNTG1, Q9NSN8
# IL16_3, Q14005 = biological target: IL16_3, Q14005
# Chain of IL16_3, Q14005 (Q14005 1107-1207): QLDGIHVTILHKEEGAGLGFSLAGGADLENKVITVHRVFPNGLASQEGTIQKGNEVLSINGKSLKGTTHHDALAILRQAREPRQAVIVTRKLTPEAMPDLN
# GORASP1, Q9BQQ3 = biological target: GORASP1, Q9BQQ3
# Chain of GORASP1, Q9BQQ3 (Q9BQQ3 1-208): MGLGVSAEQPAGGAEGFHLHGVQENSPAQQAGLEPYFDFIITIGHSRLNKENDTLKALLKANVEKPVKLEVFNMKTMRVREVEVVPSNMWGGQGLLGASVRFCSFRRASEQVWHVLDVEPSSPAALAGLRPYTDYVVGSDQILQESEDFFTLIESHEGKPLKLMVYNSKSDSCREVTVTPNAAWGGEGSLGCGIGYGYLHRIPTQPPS
# Inadl_3, Q8NI35 = biological target: Inadl_3, Q8NI35
# Chain of Inadl_3, Q8NI35 (Q8NI35 359-469): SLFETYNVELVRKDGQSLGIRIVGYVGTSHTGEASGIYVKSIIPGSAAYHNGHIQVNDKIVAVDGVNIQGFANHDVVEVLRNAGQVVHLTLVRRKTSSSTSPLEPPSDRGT
# PDZRN3_1, Q9UPQ7 = biological target: T4, PDZRN3_1, Q9UPQ7
# FRMPD2_2, Q68DX3 = biological target: FRMPD2_2, Q68DX3
# Chain of FRMPD2_2, Q68DX3 (Q68DX3 944-1038): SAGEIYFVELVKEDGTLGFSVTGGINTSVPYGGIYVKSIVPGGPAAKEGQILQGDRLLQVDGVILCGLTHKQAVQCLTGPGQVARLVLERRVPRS
# HTRA4, P83105 = biological target: T5, HTRA4, P83105
# HTRA3, P83110 = biological target: T6, HTRA3, P83110
# MPP6, Q9NZW5 = biological target: T7, MPP6, Q9NZW5
# PARD3_3, Q8TEW0 = biological target: PARD3_3, Q8TEW0
# Chain of PARD3_3, Q8TEW0 (Q8TEW0 582-685): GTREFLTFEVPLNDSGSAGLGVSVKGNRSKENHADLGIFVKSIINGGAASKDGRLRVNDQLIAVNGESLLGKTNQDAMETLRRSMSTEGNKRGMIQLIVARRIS
# HTRA1, Q92743 = biological target: HTRA1, Q92743
# Chain of HTRA1, Q92743 (Q92743 360-477): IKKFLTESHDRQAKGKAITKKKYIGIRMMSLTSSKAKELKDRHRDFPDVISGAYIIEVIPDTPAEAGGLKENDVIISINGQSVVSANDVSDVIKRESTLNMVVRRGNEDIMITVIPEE
# SNTB1, Q13884 = biological target: T8, SNTB1, Q13884
# Inadl_5, Q8NI35 = biological target: Inadl_5, Q8NI35
# Chain of Inadl_5, Q8NI35 (Q8NI35 673-780): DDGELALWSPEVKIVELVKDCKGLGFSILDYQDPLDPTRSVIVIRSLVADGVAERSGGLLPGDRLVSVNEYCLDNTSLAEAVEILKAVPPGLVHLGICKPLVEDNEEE
# FRMPD4, Q14CM0 = biological target: FRMPD4, Q14CM0
# Chain of FRMPD4, Q14CM0 (Q14CM0 67-160): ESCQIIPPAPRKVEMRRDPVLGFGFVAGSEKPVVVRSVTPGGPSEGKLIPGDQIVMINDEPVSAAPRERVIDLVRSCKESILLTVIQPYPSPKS
# NHERF4_1, Q86UT5-2 = biological target: NHERF4_1, Q86UT5-2
# Chain of NHERF4_1, Q86UT5-2 (Q86UT5 other isoform, or with tags, fused parts or gaps): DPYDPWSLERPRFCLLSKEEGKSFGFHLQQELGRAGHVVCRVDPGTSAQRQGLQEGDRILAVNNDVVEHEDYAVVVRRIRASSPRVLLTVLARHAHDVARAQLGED
# GRIP1_7, Q9Y3R0 = biological target: T9, GRIP1_7, Q9Y3R0
# LIMK2, P53671 = biological target: LIMK2, P53671
# Chain of LIMK2, P53671 (P53671 143-248): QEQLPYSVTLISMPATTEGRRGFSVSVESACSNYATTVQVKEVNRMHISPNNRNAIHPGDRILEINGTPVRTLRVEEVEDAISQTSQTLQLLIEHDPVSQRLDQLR
# DLG5_1, Q8TDM6 = biological target: DLG5_1, Q8TDM6
# Chain of DLG5_1, Q8TDM6 (Q8TDM6 617-713): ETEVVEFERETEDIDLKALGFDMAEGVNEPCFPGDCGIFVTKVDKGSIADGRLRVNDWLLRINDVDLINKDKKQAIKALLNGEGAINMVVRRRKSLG
# MPDZ_12, O75970 = biological target: T10, MPDZ_12, O75970
# PCLO, Q9Y6V0 = biological target: T11, PCLO, Q9Y6V0
# [1] = plain residues with an end cap or a label only (N-terminal biotin on a linker: ahx)
# [2] = plain residues with an end cap or a label only (N-terminal biotin on a linker: ttds)
# [3] = plain residues with an end cap or a label only (N-terminal biotin on a linker: ado-ado)
binder,measurement,setting,value
"HSATSVHTSV [MTMR1, Q13613]",pKd,"FRMPD2_1, Q68DX3; [1]",below the threshold
same,pKd,"GRASP, Q7Z6J2; [1]",4
same,pKd,"LNX1_3, Q8TBB1; [1]",below the threshold
same,pKd,"IL16_4, Q14005; [1]",below the threshold
same,pKd,"LNX2_2, Q8N448; [1]",3.96
same,pKd,"RADIL, Q96JH8; [1]",below the threshold
same,pKd,"SNTG1, Q9NSN8; [1]",below the threshold
same,pKd,"IL16_3, Q14005; [1]",below the threshold
same,pKd,"GORASP1, Q9BQQ3; [1]",below the threshold
same,pKd,"Inadl_3, Q8NI35; [1]",3.7
same,pKd,"PDZRN3_1, Q9UPQ7; [1]",below the threshold
same,pKd,"FRMPD2_2, Q68DX3; [1]",below the threshold
same,pKd,"HTRA4, P83105; [1]",below the threshold
same,pKd,"HTRA3, P83110; [1]",below the threshold
same,pKd,"MPP6, Q9NZW5; [1]",below the threshold
same,pKd,"PARD3_3, Q8TEW0; [1]",3.73
same,pKd,"HTRA1, Q92743; [1]",3.51
same,pKd,"SNTB1, Q13884; [1]",3.78
same,pKd,"Inadl_5, Q8NI35; [1]",below the threshold
same,pKd,"FRMPD4, Q14CM0; [1]",below the threshold
same,pKd,"NHERF4_1, Q86UT5-2; [1]",below the threshold
same,pKd,"GRIP1_7, Q9Y3R0; [1]",below the threshold
same,pKd,"LIMK2, P53671; [1]",below the threshold
same,pKd,"DLG5_1, Q8TDM6; [1]",below the threshold
same,pKd,"MPDZ_12, O75970; [1]",below the threshold
same,pKd,"PCLO, Q9Y6V0; [1]",below the threshold
"DLDEEEDTHL [PODXL, O00592]",pKd,"FRMPD2_1, Q68DX3; [2]",below the threshold
same,pKd,"GRASP, Q7Z6J2; [2]",below the threshold
same,pKd,"LNX1_3, Q8TBB1; [2]",below the threshold
same,pKd,"IL16_4, Q14005; [2]",below the threshold
same,pKd,"LNX2_2, Q8N448; [2]",3.48
same,pKd,"RADIL, Q96JH8; [2]",below the threshold
same,pKd,"SNTG1, Q9NSN8; [2]",3.49
same,pKd,"IL16_3, Q14005; [2]",below the threshold
same,pKd,"GORASP1, Q9BQQ3; [2]",below the threshold
same,pKd,"Inadl_3, Q8NI35; [2]",below the threshold
same,pKd,"PDZRN3_1, Q9UPQ7; [2]",below the threshold
same,pKd,"FRMPD2_2, Q68DX3; [2]",below the threshold
same,pKd,"HTRA4, P83105; [2]",below the threshold
same,pKd,"HTRA3, P83110; [2]",below the threshold
same,pKd,"MPP6, Q9NZW5; [2]",below the threshold
same,pKd,"PARD3_3, Q8TEW0; [2]",4.22
same,pKd,"HTRA1, Q92743; [2]",3.73
same,pKd,"SNTB1, Q13884; [2]",below the threshold
same,pKd,"Inadl_5, Q8NI35; [2]",below the threshold
same,pKd,"FRMPD4, Q14CM0; [2]",4.7
same,pKd,"NHERF4_1, Q86UT5-2; [2]",below the threshold
same,pKd,"GRIP1_7, Q9Y3R0; [2]",below the threshold
same,pKd,"LIMK2, P53671; [2]",below the threshold
same,pKd,"DLG5_1, Q8TDM6; [2]",below the threshold
same,pKd,"MPDZ_12, O75970; [2]",below the threshold
same,pKd,"PCLO, Q9Y6V0; [2]",below the threshold
"IGHEDLETAV [DGKI, O75912]",pKd,"FRMPD2_1, Q68DX3; [3]",below the threshold
same,pKd,"GRASP, Q7Z6J2; [3]",3.57
same,pKd,"LNX1_3, Q8TBB1; [3]",below the threshold
same,pKd,"IL16_4, Q14005; [3]",3.52
same,pKd,"LNX2_2, Q8N448; [3]",3.73
same,pKd,"RADIL, Q96JH8; [3]",below the threshold
same,pKd,"SNTG1, Q9NSN8; [3]",5.43
same,pKd,"IL16_3, Q14005; [3]",below the threshold
same,pKd,"GORASP1, Q9BQQ3; [3]",below the threshold
same,pKd,"Inadl_3, Q8NI35; [3]",3.53
same,pKd,"PDZRN3_1, Q9UPQ7; [3]",4.75
same,pKd,"FRMPD2_2, Q68DX3; [3]",5.22
same,pKd,"HTRA4, P83105; [3]",below the threshold
same,pKd,"HTRA3, P83110; [3]",below the threshold
same,pKd,"MPP6, Q9NZW5; [3]",below the threshold
same,pKd,"PARD3_3, Q8TEW0; [3]",3.64
same,pKd,"HTRA1, Q92743; [3]",3.65
same,pKd,"SNTB1, Q13884; [3]",5.08
same,pKd,"Inadl_5, Q8NI35; [3]",below the threshold
same,pKd,"FRMPD4, Q14CM0; [3]",3.9
same,pKd,"NHERF4_1, Q86UT5-2; [3]",below the threshold
same,pKd,"GRIP1_7, Q9Y3R0; [3]",below the threshold
same,pKd,"LIMK2, P53671; [3]",below the threshold
same,pKd,"DLG5_1, Q8TDM6; [3]",below the threshold
same,pKd,"MPDZ_12, O75970; [3]",below the threshold
same,pKd,"PCLO, Q9Y6V0; [3]",below the threshold
